One may read the Kd as the concentration at which binding is half-saturated. The term koff denotes the rate constant with which the complex falls apart. A low value points to a long-lived complex. The kon is the rate constant with which the complex forms. A lower kon goes with slow association.

The source of these data is paper PMC8882475.

What all share (test): BLI
On the technique in general: In BLI a coated tip is dipped into the sample, and binding shifts an interference pattern.

Assay [1] deals with biotinylated SARS-CoV-2 S protein RBD, Beta variant (K417N, E484K, N501Y) (SARS-CoV-2) (UniProt P0DTC2).
Assay [2] deals with SI–F019, huACE2 (18–615) - IgG1 Fc null (human) (UniProt Q9BYF1).
The target in a further assay is Bamlanivimab.
Assay [3] addresses SARS-CoV-2 RBD (original, WT) (SARS-CoV-2) (UniProt P0DTC2).
Assay [4] has as its target SARS-CoV-2 RBD, Alpha (N501Y) (SARS-CoV-2) (UniProt P0DTC2).
The target in assay [5] is SARS-CoV-2 RBD, Beta (K417N, E484K, N501Y) (SARS-CoV-2) (UniProt P0DTC2).
Assay [6] concerns the target SARS-CoV-2 RBD, Delta (L452R, T478K) (SARS-CoV-2) (UniProt P0DTC2).
The target of assay [7] is SARS-CoV-2 RBD, Gamma (K417T, E484K, N501Y) (SARS-CoV-2) (UniProt P0DTC2).
Assay [8] has as its target SARS-CoV-2 RBD, Kappa (L452R, E484Q) (SARS-CoV-2) (UniProt P0DTC2).
Assay [9] deals with SARS-CoV-2 RBD, Lambda (L452Q, F490S) (SARS-CoV-2) (UniProt P0DTC2).
The target of assay [10] is SARS-CoV-2 S1 protein (SARS-CoV-2).
The target of assay [11] is SARS-CoV-2 spike trimer, full-length extracellular domain (ECD), His tagged (SARS-CoV-2) (UniProt P0DTC2).

In the case of Imdevimab (antibody), the Kd in assay [1] was less than 0.001 nM.

“SARS-CoV-2 RBD, Delta (L452R, T478K) (from UniProt P0DTC2) (domain or fragment)” gave a Kd in assay [2] of 7.26 nM.

Substance “SARS-CoV-2 RBD, Lambda (L452Q, F490S) (from UniProt P0DTC2) (domain or fragment)” registered a Kd in assay [2] of 13.5 nM.

In assay [2], “SARS-CoV-2 S1 protein (domain or fragment)” returned a Kd of 14.7 nM, a koff of 0.00493 s⁻¹ and a kon of 337000 M⁻¹ s⁻¹.

In the assay with Bamlanivimab, “SARS-CoV-2 S protein RBD, Delta variant (L452R, T478K) (from UniProt P0DTC2) (domain or fragment)” had a Kd of 3.61 nM.

Consider “SI–F019, huACE2 (18–615) - IgG1 Fc null (from UniProt Q9BYF1-1 18-615) (Fc fusion)”, for which the Kd is 0.114 nM in assay [3]; 0.019 nM in [4]; 0.0635 nM in [5]; 0.0141 nM in [6]; 0.0623 nM in assay [7]; less than 0.001 nM in [8]. Moreover, the figures for the Kd in [9], in [10] and in assay [11] were 0.0892 nM, 0.29 nM and 0.18 nM, respectively.

For Tixagevimab (antibody), the Kd in assay [1] was less than 0.001 nM.
